For this data set, the system named is K4 kissing-loop RNA reporter. Description: apparent KD of K4 kissing-loop reporter; higher = weaker reporter binding. The following applies: Eterna round: R107. On the procedure:
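RNA-MaP round R107: designed RNA switches with theophylline, tryptophan, arginine or FMN aptamers are transcribed on-chip within common flanks. They are titrated with a labelled K4 kissing-loop RNA reporter in RNA-MaP buffer (100 mM Tris pH 7.5, 80 mM KCl, 4 mM MgCl2), without ligand or with the indicated ligand. Median apparent KD per design.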

Where [1] appears, read: input ligand: theophylline 20 uM.
The mark [2] stands for this setting: input ligand: tryptophan 2.4 mM.
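Also: bound reporter read as fluorescence of individual clusters on recovered sequencing chips by microscopy, with normalized cluster intensities fitted with a binding model.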

On to “UUGGCUGGACGGGAUACCAGCCAAAUCGUGUGCUUGGGAUGUCUAAGAGCCAGUGAUGUUGGCCCUUGGCAGCCCUCCCAGCUUG [Inontixe]”, for which the “apparent KD of K4 kissing-loop reporter” value is, setting by setting: (input ligand: FMN 200 uM) 0.124 µM; (input ligand: arginine 13.2 mM) 0.0886 µM; (input ligand: none) 0.0971 µM; under setting [1], 0.134 µM; under setting [2], 0.0984 µM.
The like results for “UUGUUUGGUUGAGAGGUUGGGCGAGAUGAUACCAGUAUAGUAUAGUACCCUUGGCAGCAUAGGAGAGAUAUAGUGAUGUUGUAUG [SSTheophA.V]” were, in that order, 0.424 µM, 0.288 µM, 0.493 µM, 0.372 µM and 0.373 µM.
The like results for “UUGUUUUACUGAAGGAGCGGCAAUUGAUACGUAGAUAUAGUGAUGUUAUAUAAGAUAGAGAGCCAGGUAGGUCGCAGAUGUGUUU [ExArgB.T]” were, in that order, 0.196 µM, 0.205 µM, 0.18 µM, 0.204 µM and 0.149 µM.
As to “UUUAAACAUAGUGAUGUUAUGUAACAAUGACGAGGACCGGUACGGCCGCCACUCGAGAGAGAUAAUGAUAAAAUAAAUAAUUUUC [#09 K4 Tryptophan A Same State]”, the “apparent KD of K4 kissing-loop reporter” value (input ligand: FMN 200 uM) is 0.109 µM; the “apparent KD of K4 kissing-loop reporter” value (input ligand: arginine 13.2 mM) came out at 0.111 µM; the “apparent KD of K4 kissing-loop reporter” value (input ligand: none) came to 0.118 µM; the “apparent KD of K4 kissing-loop reporter” value under setting [1] was 0.115 µM; the “apparent KD of K4 kissing-loop reporter” value under setting [2] stood at 0.0924 µM.
As for “UUUAUGAGGUCGGCCGCCACUGGAUUUAUGUUUGUUUCGUCUGGAUCAAAGUGAUGUUUUGAGUCCAGGACCGGGACAUUUGUUA [whbob_Ex_Tryp_B_w40]”, the “apparent KD of K4 kissing-loop reporter” value by setting is: (input ligand: FMN 200 uM) 0.0853 µM; (input ligand: arginine 13.2 mM) 0.0763 µM; (input ligand: none) 0.0805 µM; under setting [1], 0.0768 µM; under setting [2], 0.094 µM.
The like results for “UUUAUUAAGACGGCCGCCACUGAUUCAUAGUGAUGUUAUGAUAUAAUCUUAGUGAUAUUUAUAAACAGGACCGGGUCAAUUAUUA [JR_SSTryptoB_Sub026]” were, in that order, 0.221 µM, 0.173 µM, 0.192 µM, 0.166 µM and 0.162 µM.
On the same counts, the results for “UUUGGAUUGCGCUAAGAGUGCAAGCGCCAACGAGGACCGGUACGGCCGCCACUCGCGGAGGAGUCCAGUGAUGUUGGACGGCCCG [Orbile]” are 0.326 µM, 0.222 µM, 0.601 µM, 0.178 µM and 0.183 µM.
Turning to “UUUUAAAUAUCUGAUACCAGAGAAAAUAUAUGUAGUGAUGUUAUAUACAAAAUAAAUAAGCUCCCUUGGCAGCAGUAUUAAUUUU [AstrosExyTheB#1]”, the “apparent KD of K4 kissing-loop reporter” value reads like this: (input ligand: FMN 200 uM) 0.655 µM; (input ligand: arginine 13.2 mM) 0.622 µM; (input ligand: none) 0.808 µM; under setting [1], 0.688 µM; under setting [2], 0.61 µM.
The like results for “UUUUAAAUGUCUGAUACCAGAGAAAAUAUAUGUAGUGAUGUUACAUACAAAUUUAAUAAGCUCCCUUGGCAGCAGUAUGAAUUUU [AstrosExc-TheB#15]” were, in that order, 0.0446 µM, 0.0667 µM, 0.0559 µM, 0.067 µM and 0.0495 µM.
On the same counts, the results for “UUUUAAUGCAGUGAUGUUGCUAAUAAAACAGAGGAUAUGCAUGGAAGCAGAAGGCUGAAAUAUUAUACUUUAAUAAAUUAUAUUU [JR_SSFMNA_Sub010]” are 0.0712 µM, 0.116 µM, 0.0788 µM, 0.119 µM and 0.0666 µM.
On the same counts, the results for “UUUUAAUGCAGUGAUGUUGCUAAUAAAACAGAGGAUAUGCAUGGAAGCAGAAGGCUGAUAUAUUAUACUUUAAUAUAUUAUAUUU [JR_SSFMNA_Sub011]” are 0.0778 µM, 0.147 µM, 0.121 µM, 0.188 µM and 0.0866 µM.
As for “UUUUAUUAGUAGUGAUGUUACUAAACUGAAGGAGCGAGAUUUAACUCAGGUAGGUCGCAGAAAAUCAAUUAAUUUAUAAAUUAAA [JR_SSArginiA_Sub011]”, the “apparent KD of K4 kissing-loop reporter” value is, setting by setting: (input ligand: FMN 200 uM) 0.0977 µM; (input ligand: arginine 13.2 mM) 0.0878 µM; (input ligand: none) 0.0998 µM; under setting [1], 0.0872 µM; under setting [2], 0.0946 µM.
On the same counts, the results for “UUUUUAUGCAGUGAUGUUGCUAAUAUAACAGAGGAUAUGCAUUAAAGCAGAAGGCUGAAAUACUAUACUUUAAUAAAUUAAAUUU [JR_SSFMNA_Sub013]” are 0.0942 µM, 0.136 µM, 0.107 µM, 0.144 µM and 0.0827 µM.
Take “UUUUUGGAGAAUUAUAGUGAUGUUAUGAAGGAGGAUAUCUGGAGAUGGAGAAGGCCUAGUGGCUCAGCCCUGGAGGGUGGGUGGG [ExFMNA.aB]”: the “apparent KD of K4 kissing-loop reporter” value stood at 0.822 µM (input ligand: FMN 200 uM); 0.562 µM (input ligand: arginine 13.2 mM); 0.705 µM (input ligand: none); 0.556 µM under setting [1]; 0.572 µM under setting [2].
As for “UUUUUGGUUUAGAGUGAUGUUCCUUGUAAUCGAGGACCGGUACGGCCGCCACUCGAUUAGAAAAGAAAAGAAAAGAGUGAUGUUU [BDazzled - #2 SS Tryptophan A]”, the “apparent KD of K4 kissing-loop reporter” value reads like this: (input ligand: FMN 200 uM) 0.347 µM; (input ligand: arginine 13.2 mM) 0.229 µM; (input ligand: none) 0.299 µM; under setting [1], 0.248 µM; under setting [2], 0.243 µM.
